How the values were obtained:
[1] = tested on: SupT1 cells engineered to express CD33; assay: Activation of BW5 T-cells expressing TetCAR challenged with SupT1 cells engineered to express CD33; type: cell-based; conditions: increasing concentrations of tetracycline
Source text: FIG. 7—Function of the initial TetR construct in comparison with control. (a) TetCAR was expressed in BW5 T-cells. These T-cells were challenged with wild-type SupT1 cells or SupT1 cells engineered to express CD33 in the absence of tetracycline or in the presence of increasing concentrations of tetracycline. […] (b) Control TetCAR which lacks the TiP domain was transduced into BW5. Once again, these T-cells were challenged with wild-type SupT1 cells or SupT1 cells engineered to express CD33 in the absence or in the presence of increasing concentration of Tetracycline.
Signalling through the signalling component may be determined by a variety of methods known in the art. […] Functional readouts, such as clonal expansion of T cells, upregulation of activation markers on the cell surface, differentiation into effector cells and induction of cytotoxicity or cytokine secretion may also be utilised. As an illustration, in the present examples the inventors determined levels of interleukin-2 (IL-2) produced by T-cells expressing a receptor component and signalling component of the CAR system according to the present invention upon binding of antigen to the receptor component in the presence of varying concentrations of an agent. […]

streptavidin = streptavidin (Streptomyces avidinii, UniProt P22629); conditions: biotin mimicking peptide binding streptavidin; read-out: affinity; cited from earlier work
Sequence of streptavidin (P22629 37-163): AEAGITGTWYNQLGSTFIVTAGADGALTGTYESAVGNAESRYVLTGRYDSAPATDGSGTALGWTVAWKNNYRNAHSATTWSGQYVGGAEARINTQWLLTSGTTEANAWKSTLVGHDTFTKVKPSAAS

Compound | concentration of tetracycline at which activation is fully inhibited [1] [nM] | Kd (streptavidin) [nM]
CN(C)[C@@H]1C(O)=C(C(N)=O)C(=O)[C@@]2(O)C(O)=C3C(=O)c4c(O)cccc4[C@@](C)(O)[C@H]3C[C@@H]12 [tetracycline] | 100 | –
Biotin mimicking peptide CHPQGPPC (SEQ ID NO: 9) (Biotin mimicking peptide, ccstreptag) | – | 230
Biotin mimicking peptide DVEAWLDERVPLVET (SEQ ID NO: 4) (Biotin mimicking peptide, long nanotag) | – | 3.6
Biotin mimicking peptide DVEAWLGAR (SEQ ID NO: 5) (Biotin mimicking peptide, short nanotag) | – | 17
Biotin mimicking peptide WSHPQFEK (SEQ ID NO: 7) [streptag II] | – | 72000
